From US20190209659, “STABLE LIQUID FIBRINOGEN” (LABORATOIRE FRANCAIS DU FRACTIONNEMENT ET DES …, published 2019)

How the values were obtained:
[1] = target: T1, fibrinogen (plasma) (Homo sapiens, UniProt P02671-2;P02675;P02679-2 P02671-2:20-644,P02675:31-491,P02679-2:27-437); assay: SPR; dose-dependent 125-1000 nM, pH 6.3, MOPS, NaCl 150 mM, MgCl2 5 mM; resists 0.5 M NaCl, eluted at pH 7.4; settings: tags: human plasma purified, 95% or 99.9% purity; semi-purified and plasma used in chromatography; chain copies: 2
Procedure: (§1) Each solution of human plasma fibrinogen was injected at pH 6.3 in such a way that a complex was formed in a dose-dependent manner as shown by the increase in the signals depending on the concentration of fibrinogen. […] The fibrinogen was then released from the complex by an elution buffer at pH 7.40. The solid support was then regenerated by injection of a solution of NaOH 50 mM. X-axis: time in s. Y-axis: SPR response in arbitrary unit.
(§2) The chosen aptamer was synthesised with biotin and a spacer of triethylene glycol at the end 5′ of the oligonucleotide. A solution 1 μM of the aptamer was prepared using the SELEX selection buffer. The aptamer solution was heated to 90° C. for 5 min, incubated in ice for 5 min and balanced at the ambient temperature for 10 min. The preparation was injected into a sensor chip coated with streptavidin SA from Biocore T200 instrument (GE Healthcare) at a debit of […] for 7 min. Then, various concentrations of the target were injected onto the immobilised aptamer at a rate of 30 μl/min for 1 minute. After a dissociation for 1-2 min, a step of washing was carried out via injection of a suitable wash buffer at a rate of 30 μl/min for 1 min. For the elution, a suitable elution buffer was injected at a rate of 30 μl/min for 1-2 min. […] During the experiment, the response signal was recorded in a sensorgram.

[2] = target: T2, fibrinogen (transgenic, human) (Homo sapiens, UniProt P02671-2;P02675;P02679-2 P02671-2:20-644,P02675:31-491,P02679-2:27-437); assay: SPR; dose-dependent 125-1000 nM, pH 6.3; resists 0.5 M NaCl, eluted at pH 7.4; settings: tags: purified from transgenic cow milk, 97% purity; chain copies: 2
Procedure: as §1, with “transgenic” for “human plasma”
as §2

[3] = target: T2, fibrinogen (transgenic, human); assay: SPR; stated strong affinity, pH-dependent; settings: tags: purified from transgenic cow milk, 97% purity; chain copies: 2
[4] = target: T1, fibrinogen (plasma); assay: SPR; stated strong affinity, pH-dependent; settings: tags: human plasma purified, 95% or 99.9% purity; semi-purified and plasma used in chromatography; chain copies: 2
[5] = target: T1, fibrinogen (plasma); assay: competition; 2 uM variant with 0.4 uM fibrinogen over immobilised SEQ 66 (SPR); among highest affinity; settings: tags: human plasma purified, 95% or 99.9% purity; semi-purified and plasma used in chromatography; chain copies: 2
Procedure: (§3) In order to compare the affinity of the designed variants with that of the parental aptamer, a concurrent test was conducted. Firstly, a 1 μM solution of the aptamer of SEQ ID NO 66 was prepared using binding buffer. The aptamer solution was heated to 90° C. for 5 min, incubated in ice for 5 min and balanced at the ambient temperature for 10 min. The preparation was injected into a sensor chip coated with streptavidin SA from Biacore T200 instrument (GE Healthcare) at a rate of 10 μl/min for 7 min. Then, mixtures containing a variant (2 μM) and the human plasma fibrinogen (0.4 μM) were injected on the aptamer immobility at a rate of 30 μl/min for 1 minute. The response obtained for the various fragment/fibrinogen mixtures was compared.

[6] = target: T2, fibrinogen (transgenic, human); assay: SPR; dose-dependent 125-1000 nM, pH 6.3; resists 1 M NaCl, eluted at pH 7.4 with 2 M MgCl2; settings: tags: purified from transgenic cow milk, 97% purity; chain copies: 2
Procedure: as §1, with “transgenic” for “human plasma”, “7.40 and containing MgCl₂ 2 M.” for “7.40.”
as §2

[7] = target: T1, fibrinogen (plasma); assay: as above; settings: tags: human plasma purified, 95% or 99.9% purity; semi-purified and plasma used in chromatography; chain copies: 2
Procedure: as §1, with “7.40 and containing MgCl₂ 2 M.” for “7.40.”
as §2

[8] = target: T1, fibrinogen (plasma); assay: competition; significant inhibition of fibrinogen binding to immobilised SEQ 66 (SPR); settings: tags: human plasma purified, 95% or 99.9% purity; semi-purified and plasma used in chromatography; chain copies: 2
Procedure: as §3

[9] = target: T1, fibrinogen (plasma); assay: SPR; 250 nM fibrinogen, pH 6.3; resists 0.5 M NaCl; settings: tags: human plasma purified, 95% or 99.9% purity; semi-purified and plasma used in chromatography; chain copies: 2
[10] = target: T2, fibrinogen (transgenic, human); assay: SPR; stated strong affinity for plasma and transgenic fibrinogen, pH 6.3; settings: tags: purified from transgenic cow milk, 97% purity; chain copies: 2

T1 sequence (P02671 other isoform, or with tags, fused parts or gaps, chain 1 of 3): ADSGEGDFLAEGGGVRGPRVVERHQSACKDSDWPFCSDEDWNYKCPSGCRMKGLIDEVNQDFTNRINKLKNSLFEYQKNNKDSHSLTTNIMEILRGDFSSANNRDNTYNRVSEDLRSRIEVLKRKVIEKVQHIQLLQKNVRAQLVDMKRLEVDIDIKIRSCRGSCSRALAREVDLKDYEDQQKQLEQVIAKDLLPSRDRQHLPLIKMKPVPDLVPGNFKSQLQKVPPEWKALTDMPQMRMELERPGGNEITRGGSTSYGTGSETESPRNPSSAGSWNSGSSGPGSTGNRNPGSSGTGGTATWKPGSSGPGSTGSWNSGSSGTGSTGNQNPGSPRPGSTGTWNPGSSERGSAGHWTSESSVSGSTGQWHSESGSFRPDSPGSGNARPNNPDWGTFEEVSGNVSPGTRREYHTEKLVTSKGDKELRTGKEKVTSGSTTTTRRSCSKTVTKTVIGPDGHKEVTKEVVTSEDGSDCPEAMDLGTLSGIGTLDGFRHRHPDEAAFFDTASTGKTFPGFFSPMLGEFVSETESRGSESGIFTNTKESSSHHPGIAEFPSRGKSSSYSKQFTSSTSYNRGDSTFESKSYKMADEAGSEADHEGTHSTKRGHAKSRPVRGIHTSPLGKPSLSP
T1 sequence (P02675 31-491, chain 2 of 3): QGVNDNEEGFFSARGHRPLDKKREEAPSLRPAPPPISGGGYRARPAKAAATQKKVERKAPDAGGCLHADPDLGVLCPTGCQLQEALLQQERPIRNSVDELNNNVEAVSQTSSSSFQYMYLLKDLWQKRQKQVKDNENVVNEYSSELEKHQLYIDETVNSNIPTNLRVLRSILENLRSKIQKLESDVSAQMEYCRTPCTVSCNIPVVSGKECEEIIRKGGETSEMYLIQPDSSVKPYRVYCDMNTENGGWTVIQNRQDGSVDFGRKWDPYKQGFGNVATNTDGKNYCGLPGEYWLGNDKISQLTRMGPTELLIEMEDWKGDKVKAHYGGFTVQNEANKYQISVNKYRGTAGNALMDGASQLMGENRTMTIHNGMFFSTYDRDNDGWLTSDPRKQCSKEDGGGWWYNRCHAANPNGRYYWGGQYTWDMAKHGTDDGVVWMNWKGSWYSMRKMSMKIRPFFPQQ
T1 sequence (P02679 other isoform, or with tags, fused parts or gaps, chain 3 of 3): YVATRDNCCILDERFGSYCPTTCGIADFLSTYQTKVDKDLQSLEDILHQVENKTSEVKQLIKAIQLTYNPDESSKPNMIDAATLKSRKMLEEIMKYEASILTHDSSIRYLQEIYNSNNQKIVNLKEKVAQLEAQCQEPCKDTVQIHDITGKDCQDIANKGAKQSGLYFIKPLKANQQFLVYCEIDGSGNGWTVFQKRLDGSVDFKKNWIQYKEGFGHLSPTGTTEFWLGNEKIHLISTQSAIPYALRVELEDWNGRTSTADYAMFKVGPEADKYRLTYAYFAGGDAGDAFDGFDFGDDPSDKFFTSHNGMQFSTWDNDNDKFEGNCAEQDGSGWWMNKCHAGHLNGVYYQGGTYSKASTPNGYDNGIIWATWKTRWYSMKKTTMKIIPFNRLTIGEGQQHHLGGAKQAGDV
T2 sequence (P02671 other isoform, or with tags, fused parts or gaps, chain 1 of 3): as the sequence (P02671 other isoform, or with tags, fused parts or gaps, chain 1 of 3) above
T2 sequence (P02675 31-491, chain 2 of 3): as the sequence (P02675 31-491, chain 2 of 3) above
T2 sequence (P02679 other isoform, or with tags, fused parts or gaps, chain 3 of 3): as the sequence (P02679 other isoform, or with tags, fused parts or gaps, chain 3 of 3) above

B1: SEQ ID NO 66 (A5-1.9 base sequence) (ssDNA)
DNA: GGGTCAATGCCAGGTCTCGGACCTGGAATCCGCCACCCGCATTAGAACCAGGGTTGAC
modifications: 5' biotin-triethylene glycol (SPR); 5' amino-C6 spacer and 3' inverted dT (affinity support)
- binding result [1]: binds
- binding result [2]: binds

B2: SEQ ID NO 58 aptamer (ssDNA)
DNA: GGGTCAATGCCAGGTCTCAACTTTCGCGTGTGGTTGGTAGGGCTAGGTGTATACGCATATCGGCTCGCAAGCAGTC
modifications: 5' biotin-triethylene glycol
- binding result [3]: binds
- binding result [4]: binds

B3: SEQ ID NO 80 variant (deletion 1/2) (ssDNA)
DNA: GTCAATGCCAGGTCTCGGACCTGGAATCCGCCACCCGCATTAGAACCAGGGTTGAC
- binding result [5]: binds

B4: SEQ ID NO 81 variant (ssDNA)
DNA: GTCAATGCCAGGTCTCCCTGGAATCCGCCACCCGCATTAGAACCAGGGTTGAC
- binding result [5]: binds

Binder: GTCAATGCCAGTCGCTGGAATCCGCCACCCGCATTAGAACCAGGGTTGAC (ssDNA) [SEQ ID NO 82 variant]
- binding result [5]: binds

B5: SEQ ID NO 83 variant (ssDNA)
DNA: GTCAATGCCAGGTCTCCTGGAATCCGCCACCCGCATTAGAACCAGGGTTGAC
- binding result [5]: binds

B6: SEQ ID NO 67 (A5-2.9 base sequence) (ssDNA)
DNA: CGCGTGTGGTTGGTAGGGCTAGGTGTATACGCAT
modifications: 5' biotin-triethylene glycol (SPR); 5' amino-C6 spacer and 3' inverted dT (affinity support)
- binding result [6]: binds
- binding result [7]: binds

B7: SEQ ID NO 84 variant (ssDNA)
DNA: GTCAATGCCAGGTCACCTGGAATCCGCCACCCGCATTAGAACCAGGGTTGAC
- binding result [5]: binds

B8: SEQ ID NO 85 variant (ssDNA)
DNA: GTCAATGCCAGGTCGACCTGGAATCCGCCACCCGCATTAGAACCAGGGTTGAC
- binding result [5]: binds

B9: SEQ ID NO 86 variant (ssDNA)
DNA: GTCAATGCCAGGTCGCCTGGAATCCGCCACCCGCATTAGAACCAGGGTTGAC
- binding result [5]: binds

B10: SEQ ID NO 87 variant (ssDNA)
DNA: GTCAATGCCAGGTCTCACCTGGAATCCGCCACCCGCATTAGAACCAGGGTTGAC
- binding result [5]: binds

B11: SEQ ID NO 88 variant (ssDNA)
DNA: GTCAATGCCAGGTCGGACCTGGAATCCGCCACCCGCATTAGAACCAGGGTTGAC
- binding result [8]: binds

B12: SEQ ID NO 89 variant (ssDNA)
DNA: GTCAATGCCAGGTCTCGGACCTGGAATCCGCCACCCGCATTAGAACCAGGGTTGA
- binding result [8]: binds

B13: SEQ ID NO 90 variant (ssDNA)
DNA: GTCAATGCCAGGTCTCGGACCTGGAATCCGCCACCCGCATAGAACCAGGGTTGAC
- binding result [8]: binds

B14: SEQ ID NO 91 variant (ssDNA)
DNA: GTCAATGCCAGTCGGACCTGGAATCCGCCACCCGCATTAGAACCAGGGTTGAC
- binding result [8]: binds

B15: SEQ ID NO 92 variant (ssDNA)
DNA: GTCAATGCCAGGTCTCGGACCTGGAATCCGCCACCCGCTTAGAACCAGGGTTGAC
- binding result [8]: binds

B16: SEQ ID NO 93 variant (ssDNA)
DNA: GTCAATGCCAGCGGACCTGGAATCCGCCACCCGCATTAGAACCAGGGTTGAC
- binding result [8]: binds

B17: SEQ ID NO 60 aptamer (ssDNA)
DNA: GGGTCAATGCCAGGTCTCTGCGTACTTATCTCGATGTGGTTGGTAGGGATAGGTGTATATCGGCTCGCAAGCAGTC
modifications: 5' biotin-triethylene glycol
- binding result [9]: binds
- binding result [10]: binds

B18: SEQ ID NO 65 aptamer (ssDNA)
DNA: GGGTCAATGCCAGGTCTCGAGCCGGTGTTGTGTTATGTTGGTAGGGAAGGTGTATAATATCGGCTCGCAAGCAGTC
modifications: 5' biotin-triethylene glycol
- binding result [9]: binds
- binding result [10]: binds

B19: SEQ ID NO 1 aptamer (ssDNA)
DNA: GGGTCAATGCCAGGTCTCGGACCTGGAATCCGCCACCCGCATTAGAACCAGGGTTGACATCGGCTCGCAAGCAGTC
modifications: 5' biotin-triethylene glycol
- binding result [3]: binds
- binding result [4]: binds
